Experimental data reported in article PMC8453022, “A New Subfamily of Glycoside Hydrolase Family 30 with Strict Xylobiohydrolase Function” (Frontiers in Molecular Biosciences, 2021).
Each block holds one molecule with its values, some of them ahead of it.

Key:
AcXbh30A-CD = biological target: T1, AcXbh30A-CD (Acetivibrio clariflavus, UniProt G8LU16); assay: pNP-X2 hydrolysis, non-linear competitive inhibition fit; assay type: biochemical; settings: competitive product inhibition; substrate pNP-X2; 30 mM sodium acetate pH 4.0, 0.02 mg/ml BSA, 65 C; read-out: AcXbh30A pNP-X2 kinetic values^a ^, ^b / 116.4 ± 3.23 μM
T1 construct: gene Clocl_1795; GH30 catalytic domain only, secretion leader and C-terminal type I dockerin removed, C-terminal His-tag, pET28 expression, ca. 50 kDa, apparent monomer
T1 sequence (G8LU16 29-455 limits assumed): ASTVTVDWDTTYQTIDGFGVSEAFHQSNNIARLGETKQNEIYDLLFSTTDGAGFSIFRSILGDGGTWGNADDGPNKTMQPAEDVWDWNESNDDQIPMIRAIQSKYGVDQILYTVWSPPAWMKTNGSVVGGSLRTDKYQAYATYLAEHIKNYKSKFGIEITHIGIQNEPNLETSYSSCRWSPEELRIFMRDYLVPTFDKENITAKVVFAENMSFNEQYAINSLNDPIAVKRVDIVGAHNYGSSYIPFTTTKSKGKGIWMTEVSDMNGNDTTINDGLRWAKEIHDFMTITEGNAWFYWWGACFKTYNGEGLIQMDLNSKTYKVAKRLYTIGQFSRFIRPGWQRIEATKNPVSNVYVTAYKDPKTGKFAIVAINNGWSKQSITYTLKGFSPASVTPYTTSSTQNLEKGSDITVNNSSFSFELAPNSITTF
Excerpt: pNP-X2 hydrolysis, non-linear competitive inhibition fit on AcXbh30A-CD

purified protein = substrate: O=[N+]([O-])c1ccc(O[C@@H]2OC[C@@H](O[C@@H]3OC[C@@H](O)[C@H](O)[C@H]3O)[C@H](O)[C@H]2O)cc1; assay: purified protein; assay type: biochemical, Acetivibrio clariflavus; settings: 30 mM sodium acetate pH 4.0, 0.02 mg/ml BSA, 65 C, 10 min

Ki (AcXbh30A-CD): 2400 µM
Molecule: OC1OC[C@@H](O[C@@H]2OC[C@@H](O)[C@H](O)[C@H]2O)[C@H](O)[C@H]1O (some centres unmarked) [X2]

B1: AcXbh30A-CD (Acetivibrio clariflavus DSM 19732) (protein)
chain: T1 sequence (G8LU16 29-455 limits assumed)
notes: GH30 catalytic domain only, secretion leader and C-terminal type I dockerin removed, C-terminal His-tag, pET28 expression, ca. 50 kDa, apparent monomer
Km (purified protein): 116.4 ± 3.23 µM | Vmax (purified protein): 183.1 ± 1.13 U mg^−1 | kcat (purified protein): 152.7 s⁻¹ | kcat/Km (purified protein): 1,311.6 s^−1 mM^−1
